Columns and labels:
[1] = molecular target: unc5b_rat Unc5b (UniProt O08722)
[2] = molecular target: Unc5b, Q8K1S3-1
Unc5b, Q8K1S3-1, sequence (Q8K1S3 whole entry): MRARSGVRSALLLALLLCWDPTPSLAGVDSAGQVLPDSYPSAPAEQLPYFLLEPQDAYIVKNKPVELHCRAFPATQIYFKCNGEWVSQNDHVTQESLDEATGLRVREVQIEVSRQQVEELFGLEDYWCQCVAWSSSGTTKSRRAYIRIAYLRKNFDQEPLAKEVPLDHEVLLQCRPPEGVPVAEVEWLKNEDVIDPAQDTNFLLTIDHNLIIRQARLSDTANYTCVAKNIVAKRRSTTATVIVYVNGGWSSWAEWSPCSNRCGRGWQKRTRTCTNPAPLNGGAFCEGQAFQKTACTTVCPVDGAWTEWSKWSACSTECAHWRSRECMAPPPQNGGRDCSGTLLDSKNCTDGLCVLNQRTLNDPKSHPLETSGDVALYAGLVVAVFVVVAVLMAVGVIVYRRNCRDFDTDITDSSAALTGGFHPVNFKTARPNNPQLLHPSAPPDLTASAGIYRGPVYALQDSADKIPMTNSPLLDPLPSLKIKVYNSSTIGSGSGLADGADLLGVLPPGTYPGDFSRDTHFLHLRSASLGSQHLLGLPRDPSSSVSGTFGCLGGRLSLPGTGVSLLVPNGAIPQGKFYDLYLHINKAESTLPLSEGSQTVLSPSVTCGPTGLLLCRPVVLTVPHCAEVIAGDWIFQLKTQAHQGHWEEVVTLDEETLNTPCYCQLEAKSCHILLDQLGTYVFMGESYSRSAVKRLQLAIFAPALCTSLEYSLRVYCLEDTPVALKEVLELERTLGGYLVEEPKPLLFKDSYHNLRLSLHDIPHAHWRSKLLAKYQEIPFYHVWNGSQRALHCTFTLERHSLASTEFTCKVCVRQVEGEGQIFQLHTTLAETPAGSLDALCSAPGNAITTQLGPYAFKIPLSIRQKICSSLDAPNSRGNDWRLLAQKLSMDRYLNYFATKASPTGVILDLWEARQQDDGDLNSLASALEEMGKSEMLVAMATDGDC

unc5b_rat Unc5b, sequence (O08722 whole entry): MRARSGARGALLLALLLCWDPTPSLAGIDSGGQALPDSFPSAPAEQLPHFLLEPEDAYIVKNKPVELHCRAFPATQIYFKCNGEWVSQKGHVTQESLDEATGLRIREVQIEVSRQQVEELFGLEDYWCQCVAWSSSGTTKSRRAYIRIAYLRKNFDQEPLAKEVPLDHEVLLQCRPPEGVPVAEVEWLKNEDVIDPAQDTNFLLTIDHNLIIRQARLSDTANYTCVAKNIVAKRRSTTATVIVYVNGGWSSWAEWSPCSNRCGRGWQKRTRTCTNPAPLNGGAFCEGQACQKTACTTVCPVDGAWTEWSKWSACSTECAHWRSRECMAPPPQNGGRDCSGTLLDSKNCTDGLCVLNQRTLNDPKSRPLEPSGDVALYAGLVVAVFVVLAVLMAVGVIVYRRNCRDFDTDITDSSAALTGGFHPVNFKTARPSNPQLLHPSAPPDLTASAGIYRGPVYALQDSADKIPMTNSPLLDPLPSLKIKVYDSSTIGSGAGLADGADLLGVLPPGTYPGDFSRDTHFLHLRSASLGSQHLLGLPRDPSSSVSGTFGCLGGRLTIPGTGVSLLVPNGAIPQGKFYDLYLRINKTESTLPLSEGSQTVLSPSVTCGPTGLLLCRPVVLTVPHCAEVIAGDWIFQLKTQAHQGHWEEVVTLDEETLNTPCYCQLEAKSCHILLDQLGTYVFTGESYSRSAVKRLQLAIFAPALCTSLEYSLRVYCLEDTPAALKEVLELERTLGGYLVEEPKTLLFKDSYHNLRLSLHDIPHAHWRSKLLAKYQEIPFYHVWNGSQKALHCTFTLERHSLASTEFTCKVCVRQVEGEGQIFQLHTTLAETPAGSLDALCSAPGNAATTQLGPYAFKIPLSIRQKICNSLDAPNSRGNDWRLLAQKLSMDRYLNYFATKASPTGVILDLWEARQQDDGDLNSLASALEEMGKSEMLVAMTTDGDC

Substance | effect of a mutation on the interaction [1] | effect of a mutation on the interaction [2]
Netrin-1 (Homo sapiens) (from UniProt O95631) K358L | decreasing interaction strength | –
Netrin-1 (Homo sapiens) (from UniProt O95631) N353A | decreasing interaction strength | –
Netrin-1 (Homo sapiens) (from UniProt O95631) R348A;R349A;R351A | decreasing interaction strength | –
Netrin-1 (Homo sapiens) (from UniProt O95631) R348W | with no effect | –
Netrin-1 (Homo sapiens) (from UniProt O95631) S360A | decreasing interaction strength | –
Netrin-1 (Homo sapiens) (from UniProt O95631) Y357F | with no effect | –
Netrin-1 (Mus musculus) (from UniProt O09118) R348A;R349A | – | disrupting interaction strength
Netrin-1 (Mus musculus) (from UniProt O09118) R351A;N353A | – | decreasing interaction strength

Reference: IntAct's records for PubMed 26859457
